From US11376333B2, “mTG substrates for covalent conjugation of compounds” (COVALAB, priority 2013, dated 2022)

What was measured:
[1] = target: T1, microbial transglutaminase (mTG) (Streptomyces mobaraensis, UniProt P81453); test: Colorimetric assay: mTG incorporation of biotinylated peptides into immobilized spermine, apparent Km; assay type: biochemical; conditions: biotinylated peptides, spermine plate
T1 construct: purchased Covalab, France opr 0054
T1 sequence (P81453 77-407): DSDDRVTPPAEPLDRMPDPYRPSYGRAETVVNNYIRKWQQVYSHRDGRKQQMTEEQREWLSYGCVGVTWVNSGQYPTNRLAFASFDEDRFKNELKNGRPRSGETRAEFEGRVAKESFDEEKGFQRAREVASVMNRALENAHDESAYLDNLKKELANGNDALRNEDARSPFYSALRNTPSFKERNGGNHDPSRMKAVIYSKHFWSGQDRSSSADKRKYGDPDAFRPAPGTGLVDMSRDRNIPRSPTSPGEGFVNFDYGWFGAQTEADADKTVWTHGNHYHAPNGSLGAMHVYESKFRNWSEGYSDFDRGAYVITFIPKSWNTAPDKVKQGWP
Description: To produce the Covabtest-spm plate, the procedure previously described in Mily et al (2009) was used.
For the screening of the peptide listed in table 2 (Biotinylated peptides) the inventors used our colorimetric assay to measure transglutaminase 2 (TG2) cross linking activity (Mily et al, 2009) and commercialized under ref opr0033 in which mTG was used instead of TG2 and described in this experience. The principle of the method is based on the transamidation activity of mTG, using covalently coupled spermine to carboxy-substituted polystyrene plates and biotinylated peptides. The assay consists of the incorporation of the glutamine gamma-carboxamide group into the immobilized spermine. The amount of biotinylated peptide bound to the plate, as measured by the activity of streptavidin-peroxidase, is directly proportional to the TG activity. Absorbance was measured at 450 nm using the microplate reader.
In order to compare the affinity of mTG to the preferred substrate, the peptides were used at different concentrations ranging from 160, 80, 40, 20, 10, 5, 2.5 and 0 μM. Then the apparent Km were determined for each peptide and were calculated by Lineweaver-Burk method (1/Absorbance=f(1/[mTG (μM)]).
In this experiment, spermine was conjugated into the plate as described in B-II-4. Biotinylated peptides described in table 3 were incubated with mTG at different concentration (160, 80, 40, 20, 10, 5, 2.5 and 0 μM). […] Even if E seems to abolish the reactivity of the peptides this cannot be due to the negative charge only but also to the nature of the amino acides at the position X+1, X+2 and X+3. […] This is confirmed with LN-11Q8Q10 peptide.

[2] = target: T1, microbial transglutaminase (mTG); test: mTG incorporation of biot-cad into coated BSA-peptide conjugate, with free-peptide competition; assay type: biochemical; conditions: 150 μM free peptide, mTG 100 ng/ml
Experimental: 2 mg of each peptide was dissolved in 1 ml of deionized water and 150 nmoles were mixed with 0.5 mg BSA solubilized in 50 mM bicarbonate buffer pH9.5. After shaking, glutaraldehyde was added at a final concentration of 0.25% (v/v). The mixtures were kept at room temperature during 16 hrs under gentle shaking. At the end of this incubation time, sodium borohydride was added at a final concentration of 10 mg/ml to stabilize the cross-linking between BSA and the peptides. After 2 hours each mixture of peptide-BSA was dialyzed separately in PBS to remove any free peptides.
High binding 96 wells-microtiter plates (Costar) were used to immobilize BSA-peptide and to human IgG-peptide conjugates prepared as described in M-4 and M-5. For these experiments, conjugates were prepared at 50 μg/ml in 50 mM sodium carbonate buffer pH 9 and 100 μl of each solution was dispensed in the number of wells needed for the experiment. After overnight incubation at 4° C., the plates were washed extensively with Tris Buffer Saline (TBS) and were ready to be used for TG activity.
The same procedure was used as described in B-II-1
In the literature its well known that many proteins are not substrate of transglutaminase even if many glutamine residues are present in their structures (Gorman J J, Folk J E. J Biol Chem. 1984 Jul. 25; 259(14):9007-10). […]

HDLMWPDVYSQH (Peptide HH12Q11) was tested, and the “reactivity of peptide with mTG (text on Table 3)” value [1] was “highly reactive with mTG” and the “effect of added free peptide on mTG reactivity on BSA-HH12Q11” value [2] was “decreased”.
